Data: US20240293512A1 (HANMI PHARM, published 2024)
Bridge positions count the residues as written; N and C are the ends. Square brackets hold non-standard residues; d marks the D form. Ends that are not written are not given here. * marks the point of attachment. Acetyl(2-(4-imidazolyl)) = O=C(Cc1c[nH]cn1)*; Aib = CC(C)(N)C(=O)O

T1: human GIP receptor (human, UniProt P48546 22-466)
T1 sequence (looked up): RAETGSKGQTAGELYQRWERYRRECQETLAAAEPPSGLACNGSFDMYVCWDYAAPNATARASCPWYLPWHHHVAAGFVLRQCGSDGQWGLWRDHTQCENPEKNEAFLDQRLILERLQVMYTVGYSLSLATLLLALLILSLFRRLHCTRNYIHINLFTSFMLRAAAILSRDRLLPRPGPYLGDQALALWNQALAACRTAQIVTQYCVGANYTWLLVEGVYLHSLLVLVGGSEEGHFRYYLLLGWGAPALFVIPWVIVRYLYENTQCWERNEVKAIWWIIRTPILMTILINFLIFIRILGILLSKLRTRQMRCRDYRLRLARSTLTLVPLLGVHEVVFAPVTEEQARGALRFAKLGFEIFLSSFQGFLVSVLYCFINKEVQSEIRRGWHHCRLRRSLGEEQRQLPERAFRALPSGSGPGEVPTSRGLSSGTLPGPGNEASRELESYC


Biological target: human GLP-1 receptor (human, UniProt P43220 24-463)
Test: cell-based or functional assay

Point of comparison: Y[Aib]QGTFTSDYSKALDEKAAKDFVNWLLDQHPSSGQPPPSC (bridge 16-20) [triple agonist of SEQ ID NO: 102], “In vitro activity compared with native peptide (%) vs GLP-1 (cAMP EC50)” value 23.3%. Against it:
- Y[Aib]QGTFTSDYSKALDEKAAKEFVNWLLDHHPSSGQPPPSC (bridge 16-20) [triple agonist of SEQ ID NO: 98] — higher, 28.1%
- [Acetyl(2-(4-imidazolyl))][Aib]QGTFTSDYSKYLDEKRQKEFVQWLLNTKC (bridge 16-20) [triple agonist of SEQ ID NO: 88] — lower, 9.6%
- [Acetyl(2-(4-imidazolyl))]GEGTFISDLSKYMDEQAVQLFVEWLMAGGPSSGAPPPSHG [triple agonist of SEQ ID NO: 12] — lower, 0.4%
- [Acetyl(2-(4-imidazolyl))][Aib]QGTFTSDYSIAMDEIHQKDFVNWLLAQKC (bridge 16-20) [triple agonist of SEQ ID NO: 92] — lower, 0.8%
- Y[Aib]QGTFTSDYSKALDEKAAKDFVNWLLDHHPSSGQPPPSC (bridge 16-20) [triple agonist of SEQ ID NO: 99] — lower, 20.9%
- [Acetyl(2-(4-imidazolyl))][Aib]QGTFTSDYSKYLDEKRQKEFVQWLLDTKC (bridge 16-20) [triple agonist of SEQ ID NO: 89] — lower, 7.1%
- [Acetyl(2-(4-imidazolyl))][Aib]QGTFTSDYSKYLDEKRQKEFVNWLLAQKC (bridge 16-20) [triple agonist of SEQ ID NO: 93] — lower, 5.7%
- H[Aib]QGTFTSDVSKYLDGQAAQEFVAWLLAGC [triple agonist of SEQ ID NO: 9] — higher, 32.1%
- [Acetyl(2-(4-imidazolyl))][Aib]QGTFTSDYSKYLDEKRQKEFVNWLLAQC (bridge 16-20) [triple agonist of SEQ ID NO: 86] — higher, 28.4%
- Y[Aib]QGTFTSDYSKYLDEKRAKEFVQWLLCHHPSSGQPPPS (bridge 16-20) [triple agonist of SEQ ID NO: 95] — lower, 2.1%
- [Acetyl(2-(4-imidazolyl))][Aib]EGTFTSDYSIAMDEIHQKDFVDWLLAEC (bridge 16-20) [triple agonist of SEQ ID NO: 84] — lower, 4.2%
- [Acetyl(2-(4-imidazolyl))]GEGTFTSDLSKYLDSRRQQLFVQWLKAGGPSSGAPPPSHG [triple agonist of SEQ ID NO: 11] — lower, 1.4%
- [Acetyl(2-(4-imidazolyl))][Aib]QGTFTSDYSIAMDEIHQKDFVNWLLNTKC (bridge 16-20) [triple agonist of SEQ ID NO: 94] — lower, 0.5%
- [Acetyl(2-(4-imidazolyl))][Aib]EGTFTSDYSIAMDEIHQKDFVDWLLAEKC (bridge 16-20) [triple agonist of SEQ ID NO: 91] — higher, 31.9%
- H[Aib]QGTFTSDVSKYLDGQAAQEFVAWLLAGGGPSSGAPPPSC [triple agonist of SEQ ID NO: 10] — higher, 46%
- Y[Aib]QGTFTSDYSKALDEKAAKEFVQWLLDQHPSSGQPPPSC (bridge 16-20) [triple agonist of SEQ ID NO: 100] — higher, 42.2%
- [Acetyl(2-(4-imidazolyl))][Aib]EGTFTSDYSIAMDEIHQKDFVNWLLAQC (bridge 16-20) [triple agonist of SEQ ID NO: 83] — higher, 47.3%
- [Acetyl(2-(4-imidazolyl))][Aib]QGTFTSDYSIAMDEIHQKDFVNWLLAQC (bridge 16-20) [triple agonist of SEQ ID NO: 85] — lower, 4.3%
- [Acetyl(2-(4-imidazolyl))][Aib]QGTFTSDYSIAMDEIHQKDFVNWLLNTC (bridge 16-20) [triple agonist of SEQ ID NO: 87] — lower, 0.9%
- Y[Aib]QGTFTSDYSKALDEKAAKEFVNWLLDQHPSSGQPPPSC (bridge 16-20) [triple agonist of SEQ ID NO: 101] — lower, 23.2%
- Y[Aib]QGTFTSDYSKYLDEKRAKEFVQWLLDHCPSSGQPPPS (bridge 16-20) [triple agonist of SEQ ID NO: 96] — higher, 34.4%
- Y[Aib]QGTFTSDYSKYLDEKRAKEFVQWLLDCHPSSGQPPPS (bridge 16-20) [triple agonist of SEQ ID NO: 97] — lower, 10.5%
- [Acetyl(2-(4-imidazolyl))][Aib]EGTFTSDYSIAMDEIHQKDFVNWLLAQKC (bridge 16-20) [triple agonist of SEQ ID NO: 90] — lower, 7.4%

Biological target: human GCG receptor (human, UniProt P47871 26-477)
Test: cell-based or functional assay

Sequence of human GCG receptor (P47871 26-477): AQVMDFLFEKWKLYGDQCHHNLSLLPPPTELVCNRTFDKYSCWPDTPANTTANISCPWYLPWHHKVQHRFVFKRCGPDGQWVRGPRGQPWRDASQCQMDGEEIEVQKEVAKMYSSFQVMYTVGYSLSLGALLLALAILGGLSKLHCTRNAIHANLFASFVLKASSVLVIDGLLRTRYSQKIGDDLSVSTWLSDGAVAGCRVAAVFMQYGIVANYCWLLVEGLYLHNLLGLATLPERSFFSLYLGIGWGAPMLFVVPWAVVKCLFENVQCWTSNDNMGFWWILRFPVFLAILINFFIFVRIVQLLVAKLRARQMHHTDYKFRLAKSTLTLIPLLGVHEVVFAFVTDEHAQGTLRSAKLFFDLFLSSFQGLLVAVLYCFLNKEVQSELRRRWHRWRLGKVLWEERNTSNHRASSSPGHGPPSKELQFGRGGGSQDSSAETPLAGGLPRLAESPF

Point of comparison: Y[Aib]QGTFTSDYSKYLDEKRAKEFVQWLLCHHPSSGQPPPS (bridge 16-20) [triple agonist of SEQ ID NO: 95], “In vitro activity compared with native peptide (%) vs Glucagon (cAMP EC50)” value 0.4%. Against it:
- Y[Aib]QGTFTSDYSKALDEKAAKEFVNWLLDHHPSSGQPPPSC (bridge 16-20) [triple agonist of SEQ ID NO: 98] — higher, 8.2%
- [Acetyl(2-(4-imidazolyl))][Aib]QGTFTSDYSKYLDEKRQKEFVQWLLNTKC (bridge 16-20) [triple agonist of SEQ ID NO: 88] — lower, 0.3%
- [Acetyl(2-(4-imidazolyl))]GEGTFISDLSKYMDEQAVQLFVEWLMAGGPSSGAPPPSHG [triple agonist of SEQ ID NO: 12] — lower, < 0.1%
- [Acetyl(2-(4-imidazolyl))][Aib]QGTFTSDYSIAMDEIHQKDFVNWLLAQKC (bridge 16-20) [triple agonist of SEQ ID NO: 92] — lower, < 0.1%
- Y[Aib]QGTFTSDYSKALDEKAAKDFVNWLLDHHPSSGQPPPSC (bridge 16-20) [triple agonist of SEQ ID NO: 99] — higher, 14.9%
- [Acetyl(2-(4-imidazolyl))][Aib]QGTFTSDYSKYLDEKRQKEFVQWLLDTKC (bridge 16-20) [triple agonist of SEQ ID NO: 89] — higher, 0.7%
- [Acetyl(2-(4-imidazolyl))][Aib]QGTFTSDYSKYLDEKRQKEFVNWLLAQKC (bridge 16-20) [triple agonist of SEQ ID NO: 93] — lower, 0.3%
- H[Aib]QGTFTSDVSKYLDGQAAQEFVAWLLAGC [triple agonist of SEQ ID NO: 9] — lower, 0.13%
- [Acetyl(2-(4-imidazolyl))][Aib]QGTFTSDYSKYLDEKRQKEFVNWLLAQC (bridge 16-20) [triple agonist of SEQ ID NO: 86] — the same, 0.4%
- [Acetyl(2-(4-imidazolyl))][Aib]EGTFTSDYSIAMDEIHQKDFVDWLLAEC (bridge 16-20) [triple agonist of SEQ ID NO: 84] — lower, < 0.1%
- [Acetyl(2-(4-imidazolyl))]GEGTFTSDLSKYLDSRRQQLFVQWLKAGGPSSGAPPPSHG [triple agonist of SEQ ID NO: 11] — lower, < 0.1%
- [Acetyl(2-(4-imidazolyl))][Aib]QGTFTSDYSIAMDEIHQKDFVNWLLNTKC (bridge 16-20) [triple agonist of SEQ ID NO: 94] — lower, < 0.1%
- [Acetyl(2-(4-imidazolyl))][Aib]EGTFTSDYSIAMDEIHQKDFVDWLLAEKC (bridge 16-20) [triple agonist of SEQ ID NO: 91] — higher, 16.8%
- H[Aib]QGTFTSDVSKYLDGQAAQEFVAWLLAGGGPSSGAPPPSC [triple agonist of SEQ ID NO: 10] — lower, < 0.1%
- Y[Aib]QGTFTSDYSKALDEKAAKEFVQWLLDQHPSSGQPPPSC (bridge 16-20) [triple agonist of SEQ ID NO: 100] — higher, 12.7%
- [Acetyl(2-(4-imidazolyl))][Aib]EGTFTSDYSIAMDEIHQKDFVNWLLAQC (bridge 16-20) [triple agonist of SEQ ID NO: 83] — higher, 1.3%
- [Acetyl(2-(4-imidazolyl))][Aib]QGTFTSDYSIAMDEIHQKDFVNWLLAQC (bridge 16-20) [triple agonist of SEQ ID NO: 85] — lower, < 0.1%
- Y[Aib]QGTFTSDYSKALDEKAAKDFVNWLLDQHPSSGQPPPSC (bridge 16-20) [triple agonist of SEQ ID NO: 102] — higher, 29.5%
- [Acetyl(2-(4-imidazolyl))][Aib]QGTFTSDYSIAMDEIHQKDFVNWLLNTC (bridge 16-20) [triple agonist of SEQ ID NO: 87] — lower, < 0.1%
- Y[Aib]QGTFTSDYSKALDEKAAKEFVNWLLDQHPSSGQPPPSC (bridge 16-20) [triple agonist of SEQ ID NO: 101] — higher, 13.9%
- Y[Aib]QGTFTSDYSKYLDEKRAKEFVQWLLDHCPSSGQPPPS (bridge 16-20) [triple agonist of SEQ ID NO: 96] — higher, 195%
- Y[Aib]QGTFTSDYSKYLDEKRAKEFVQWLLDCHPSSGQPPPS (bridge 16-20) [triple agonist of SEQ ID NO: 97] — higher, 62.8%
- [Acetyl(2-(4-imidazolyl))][Aib]EGTFTSDYSIAMDEIHQKDFVNWLLAQKC (bridge 16-20) [triple agonist of SEQ ID NO: 90] — lower, < 0.1%

Biological target: T1, human GIP receptor
Test: cell-based or functional assay

Point of comparison: [Acetyl(2-(4-imidazolyl))][Aib]QGTFTSDYSKYLDEKRQKEFVNWLLAQC (bridge 16-20) [triple agonist of SEQ ID NO: 86], “In vitro activity compared with native peptide (%) vs GIP (cAMP EC50)” value 0.2%. Against it:
- Y[Aib]QGTFTSDYSKALDEKAAKEFVNWLLDHHPSSGQPPPSC (bridge 16-20) [triple agonist of SEQ ID NO: 98] — higher, 47.1%
- [Acetyl(2-(4-imidazolyl))][Aib]QGTFTSDYSKYLDEKRQKEFVQWLLNTKC (bridge 16-20) [triple agonist of SEQ ID NO: 88] — lower, < 0.1%
- [Acetyl(2-(4-imidazolyl))]GEGTFISDLSKYMDEQAVQLFVEWLMAGGPSSGAPPPSHG [triple agonist of SEQ ID NO: 12] — lower, < 0.1%
- [Acetyl(2-(4-imidazolyl))][Aib]QGTFTSDYSIAMDEIHQKDFVNWLLAQKC (bridge 16-20) [triple agonist of SEQ ID NO: 92] — higher, 0.4%
- Y[Aib]QGTFTSDYSKALDEKAAKDFVNWLLDHHPSSGQPPPSC (bridge 16-20) [triple agonist of SEQ ID NO: 99] — higher, 57.7%
- [Acetyl(2-(4-imidazolyl))][Aib]QGTFTSDYSKYLDEKRQKEFVQWLLDTKC (bridge 16-20) [triple agonist of SEQ ID NO: 89] — lower, < 0.1%
- [Acetyl(2-(4-imidazolyl))][Aib]QGTFTSDYSKYLDEKRQKEFVNWLLAQKC (bridge 16-20) [triple agonist of SEQ ID NO: 93] — higher, 0.7%
- H[Aib]QGTFTSDVSKYLDGQAAQEFVAWLLAGC [triple agonist of SEQ ID NO: 9] — lower, < 0.1%
- Y[Aib]QGTFTSDYSKYLDEKRAKEFVQWLLCHHPSSGQPPPS (bridge 16-20) [triple agonist of SEQ ID NO: 95] — lower, < 0.1%
- [Acetyl(2-(4-imidazolyl))][Aib]EGTFTSDYSIAMDEIHQKDFVDWLLAEC (bridge 16-20) [triple agonist of SEQ ID NO: 84] — lower, < 0.1%
- [Acetyl(2-(4-imidazolyl))]GEGTFTSDLSKYLDSRRQQLFVQWLKAGGPSSGAPPPSHG [triple agonist of SEQ ID NO: 11] — lower, < 0.1%
- [Acetyl(2-(4-imidazolyl))][Aib]QGTFTSDYSIAMDEIHQKDFVNWLLNTKC (bridge 16-20) [triple agonist of SEQ ID NO: 94] — lower, < 0.1%
- [Acetyl(2-(4-imidazolyl))][Aib]EGTFTSDYSIAMDEIHQKDFVDWLLAEKC (bridge 16-20) [triple agonist of SEQ ID NO: 91] — higher, 0.3%
- H[Aib]QGTFTSDVSKYLDGQAAQEFVAWLLAGGGPSSGAPPPSC [triple agonist of SEQ ID NO: 10] — lower, < 0.1%
- Y[Aib]QGTFTSDYSKALDEKAAKEFVQWLLDQHPSSGQPPPSC (bridge 16-20) [triple agonist of SEQ ID NO: 100] — higher, 118%
- [Acetyl(2-(4-imidazolyl))][Aib]EGTFTSDYSIAMDEIHQKDFVNWLLAQC (bridge 16-20) [triple agonist of SEQ ID NO: 83] — higher, 0.4%
- [Acetyl(2-(4-imidazolyl))][Aib]QGTFTSDYSIAMDEIHQKDFVNWLLAQC (bridge 16-20) [triple agonist of SEQ ID NO: 85] — higher, 0.3%
- Y[Aib]QGTFTSDYSKALDEKAAKDFVNWLLDQHPSSGQPPPSC (bridge 16-20) [triple agonist of SEQ ID NO: 102] — higher, 58%
- [Acetyl(2-(4-imidazolyl))][Aib]QGTFTSDYSIAMDEIHQKDFVNWLLNTC (bridge 16-20) [triple agonist of SEQ ID NO: 87] — lower, < 0.1%
- Y[Aib]QGTFTSDYSKALDEKAAKEFVNWLLDQHPSSGQPPPSC (bridge 16-20) [triple agonist of SEQ ID NO: 101] — higher, 40.1%
- Y[Aib]QGTFTSDYSKYLDEKRAKEFVQWLLDHCPSSGQPPPS (bridge 16-20) [triple agonist of SEQ ID NO: 96] — higher, 5.2%
- Y[Aib]QGTFTSDYSKYLDEKRAKEFVQWLLDCHPSSGQPPPS (bridge 16-20) [triple agonist of SEQ ID NO: 97] — higher, 2.6%
- [Acetyl(2-(4-imidazolyl))][Aib]EGTFTSDYSIAMDEIHQKDFVNWLLAQKC (bridge 16-20) [triple agonist of SEQ ID NO: 90] — lower, < 0.1%
